Test results: the supplement of paper PMC12042874
± gives the uncertainty stated by the source.

Assay: amyloid nucleation score (Sup35N fusion, yeast selection) (log enrichment); library NNK2; higher = more nucleation; inactive = no reads after selection
Procedure, shortened: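 DiMSum was used to calculate nucleation scores as log enrichment of output over input reads, centred on the mode score of non-aggregating sequences. Sequences with fewer than 100 input reads were not scored. Input and output came from Illumina sequencing of plasmid inserts in psi-negative yeast expressing peptides of 20 random codons fused to Sup35N, induced 24 hours with 100 μM copper sulfate and then grown 7 days at 30°C on medium lacking adenine and uracil.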

Substance	amyloid nucleation score
VSAGVTREGLEVGTVFGP	0.379 ± 0.44
VSAGWSTST	3 ± 0.09
VSDACRLDYLLAHILELGSM	-1.08 ± 0.78
VSHRG	2.37 ± 0.076
VSIVRYIFSPNWFVTIASIY	-1.51 ± 0.49
VSKLNLLNIHCAKPFLLEL	3.38 ± 0.13
VSLLNGYGAHSDMSAVGRRR	0.649 ± 0.47
VSLNCKRRALMTWYVKGLFG	-0.073 ± 0.22
VSNPSSQMNC	0.042 ± 0.16
VSNYMIVKIQWFHIVVGPGL	5.598 ± 0.031
VSPALK	-0.055 ± 1.1
VSRII	inactive
VSSHNCWFFRGSGWFLFHHW	inactive
VSSPLAWKFLVNKICISDGG	inactive
VSTILYLDY	0.218 ± 1.1
VSTTLTCEMLSVAVLFT	0.886 ± 0.3
VSVVFNARPHRDSHNPSAER	6.129 ± 0.054
VSVWYGGLVRVRSTWCKIKF	1.13 ± 0.13
VSYPVCMGKWHGSTRILNRH	0.669 ± 0.27
VSYVYVKGFGVWFLCTCSPR	5.74 ± 0.072
VTAAIIVFCNGVLVRWTFIM	-0.99 ± 1
VTCCVTSEWVGFLDWWSDRQ	10.13 ± 0.043
VTDYYYLCKFKSRVP	-0.799 ± 0.78
VTFCMQVRAG	0.524 ± 0.33
VTFFTAFLTFVYCCMMLMYM	7.32 ± 0.078
VTGDMTLFAWNLMGA	0.625 ± 0.43

Substance	amyloid nucleation score
VTGNKEVMKIRCWVAHEESD	1.32 ± 0.37
VTIIVLPANVMLMWVFCYMY	-0.93 ± 0.78
VTNSVSHIVDCCAHSERVWV	0.111 ± 0.39
VTPDLDCLRDNDMVCGGPDQ	0.171 ± 0.23
VTRPMDDTRVRVSNCVDWII	0.511 ± 0.38
VTSICNPDVIMEEKLGDNRG	-0.416 ± 0.28
VTVCC	1.69 ± 0.2
VTVNE	0.711 ± 0.21
VTYFTILNHMCW	6.602 ± 0.04
VTYLMCLWAGVARG	-0.324 ± 1.1
VTYWFLLHNIRRLPRYIWLR	-0.664 ± 0.48
VVAFRMSSDNAHSHDLPVPW	5.59 ± 0.073
VVAVVPYFN	-0.202 ± 1.1
VVCEASTCDMLESEWFWAEF	0.226 ± 0.23
VVDTGFQRTGKSWIINDRGM	0.253 ± 0.14
VVDTMNFNYCVVCSLRSVWQ	10.5 ± 0.058
VVFTGWYHEGWRVV	0.914 ± 0.18
VVGFSMFYKWDMNSMVSRMS	2.27 ± 0.084
VVGTPCL	0.542 ± 0.41
VVHQVSVGHCWVSR	0.683 ± 0.21
VVNCCGWMVPVGPSHW	10.32 ± 0.035
VVRAFTDKPRSVSDSLGVIN	1.16 ± 0.18
VVRVFLKGSSCGSLEAFDYV	2.86 ± 0.19
VVWARYSVNLWMNLGSQASF	4.01 ± 0.1
VVWSN	0.845 ± 0.29
VVYPCFSIMLQMEVLYIVFI	1.33 ± 0.33

Substance	amyloid nucleation score
VVYRLDFRPFNSPPCMRSAS	0.074 ± 0.32
VWLALEWVLGWSTMR	1.73 ± 0.19
VWLCHSVNHIAISNE	1.12 ± 0.45
VWMYITSW	-1.12 ± 0.55
VWTES	1.83 ± 0.25
VWVPQSVIRSLHLPSN	-1.01 ± 1.1
VWWVAFYSGTKI	0.019 ± 1.1
VWYITIYIWGMRRLIAWRMS	0.31 ± 0.74
VWYLFKNAFHMVFKTEWYEG	-1.52 ± 0.54
VYATFPSTIYLMLVFMESGV	inactive
VYCFSAFLGQ	3.63 ± 0.082
VYCVGNMSLGGLMDNCWYAG	4.41 ± 0.062
VYEKVVLGKDFVM	-0.28 ± 0.79
VYFMCLWGFI	-0.453 ± 1.1
VYFSSSIADKFYNLISVRFI	0.833 ± 0.8
VYGPTVNFK	0.761 ± 0.25
VYIAAHTCIC	4.93 ± 0.079
VYIILSFSIGMGEFNMISGG	-0.587 ± 0.79
VYIIVFRIWLPLHFWSSTLM	-0.354 ± 0.56
VYKYNISFLEPKHESQAWNK	0.042 ± 0.63
VYLVRKWRSGWRYLTRVI	1.24 ± 0.41
VYMHASCSERSMDESRNRVD	inactive
VYTFK	0.667 ± 0.66
VYTRKCGLAFRVSSGT	0.574 ± 0.5
VYTRMKITVGFKYLYN	1.24 ± 0.45
VYTTLPYSFGGYNCYMSSRL	inactive

Substance	amyloid nucleation score
VYWCLITFNHEDAHSYCFL	2.22 ± 0.26
VYYGVYLMSCFVAGGYFYCF	3.75 ± 0.061
VYYIYQLEWSDVFFSAYGVH	-0.072 ± 0.76
VYYLDSV	0.978 ± 0.74
VYYLVSLGLT	1.91 ± 0.14
VYYSNTTTRSCSEMQVVFFF	-1.13 ± 0.41
WALYVGGANRFFMCQWVNLG	2.26 ± 0.13
WATFRPD	0.31 ± 0.54
WCAPWPWVKCLFTSPVFSVV	0.712 ± 0.4
WCLMVGFMFMCRYDGNQSDG	2.98 ± 0.051
WCRWMGMH	0.543 ± 0.47
WCSVLRDNKLSR	-1.09 ± 0.45
WCWLEYCCTIDSLIFLFEN	4.09 ± 0.12
WDLLRVM	0.312 ± 0.8
WDNLNDFHN	-1.35 ± 1.1
WDNWDPVAAP	inactive
WDYVQVCPNLLVRTLLFMFA	-0.81 ± 0.32
WEASSFKVSGLSGSHHPSKG	2.3 ± 0.13
WEIRNAYVQVT	-0.178 ± 0.39
WEITLVNGSWVLESRTQRHF	4.06 ± 0.079
WFAGFMCRVLACTFSALKLS	-0.917 ± 0.78
WFFFFNGPAYVFNLNIVNFS	7.035 ± 0.06
WFGYMALPR	4.63 ± 0.064
WFISPKDKGRASIHLNEYRW	3.97 ± 0.045
WFMERVFYNSTNSTQLFEWV	inactive
WFYKVSSA	-0.481 ± 0.55

Substance	amyloid nucleation score
WFYNVATYTHVAANTRVMKC	0.231 ± 0.44
WGAEILAHVGPSHEYSR	-0.175 ± 0.49
WGCCGDLVYAIS	0.194 ± 0.62
WGRLGARCYRRILVPGRCLE	-0.756 ± 0.48
WGRWAVSFYGLREDSLLSLG	-0.324 ± 0.53
WGSGNGLVGLHYLASLFERN	0.847 ± 0.58
WGSISNIFYLLRVLYCLSMS	1.79 ± 0.26
WGTCMCRKWASHFDREC	2.55 ± 0.17
WGVFWLPH	-0.807 ± 0.56
WGWEIFIVWTWLRGVILYVL	-0.602 ± 1.1
WHEWCEGCGRNCSWEVGQDR	0.435 ± 0.23
WHFSRSWDPKFWRRAHSWWE	0.276 ± 0.5
WIITNCSLFFSVALS	6.79 ± 0.085
WILVGFIIGTKWVSRPTTDC	3.61 ± 0.056
WIVRFSGCCDVGWTSGVRSY	6.17 ± 0.075
WIYIIVSPFMRWLESSLLSA	inactive
WLGRCVNNNLNDVCDFQT	-1.17 ± 0.39
WLKYMSCSLAKSQVSACVSV	0.219 ± 0.46
WLLKFSVGLNFFSEFNVLRC	-1.43 ± 0.75
WLLVDYAASCRGKWCHEMHG	0.284 ± 0.19
WLLVYYISARVQQSADNKRW	-1.02 ± 1
WLPKVWLRVRWFNEEKRDGG	-0.123 ± 0.54
WLVKLSGDMF	2.54 ± 0.073
WLYDPSIMWNIGWVSNMMHQ	-0.454 ± 0.24
